Source: paper PMC5173029

Biological target: Recombinant FIP-sch3 from Stachybotrys chartarum (Stachybotrys chartarum IBT 7711)
Assay: SEC; Superdex 75 (10/300 GL) gel filtration in PBS (10 mM, pH 7.2) after the GST tag was removed; markers 66, 43, 29 and 17 kDa; calculated mass about 28.3 kDa against 14.1 kDa for the monomer

Recombinant FIP-sch3 from Stachybotrys chartarum (natural protein)
stoichiometry N: 2
